According to the RNAGym collection of RNA variant scans (doi:10.1073/pnas.2313332121):
Variants at the floor of the assay were thinned out.

B1: TPR 5TU (parent)
chain: GGAUCUUCUCGAUCUAACAAAAAAGACAAAUCUGCCACAAAGCUUGAGAGCAUCUUCGGAUGCAGAGGCGGCAGCCUUCGGUGGCGCGAUAGCGCCAACGUUCUCAACUAUGACACGCAAAACGCGUGCUCCGUUGAAUGGAGUUUAUCAUG

Variants of: B1
Assay: polymerase ribozyme fitness, log enrichment relative to wild type (log ratio); higher = more active; in vitro selection for triplet polymerase activity
How it was run: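 For each subunit of a heterodimeric triplet polymerase ribozyme, a mutant library was built by PCR and transcribed, then taken through a single in vitro selection round in triplicate. Selection involved annealing to a biotinylated primer, the partner subunit and triplets, incubation frozen at −7 °C, gel excision of extended constructs, capture on streptavidin beads and RT-PCR. Genotypes were retained after Illumina sequencing of inputs and outputs only with ≥10 input reads and ≥1 read in each output. Fitness is defined as the logarithm of a genotype's enrichment relative to wild-type enrichment, using inverse-variance-weighted averages across replicates, with the logarithm taken to base 2.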

| Variant | polymerase ribozyme fitness (log ratio) |
| --- | --- |
| A19C G80A C85G | -0.89 |
| C18U A40G | -2.32 |
| A19C U53G C85U G92A C103A G141C | ≤ -4.2 |
| A19U C96G A142C | -2.72 |
| C18U C57A A115C G143U U148A | ≤ -4.2 |
| A17U A21G C27G A28U C85A C87U C95G | ≤ -4.2 |
| A17U A47G C57U G74C U77C U82A G83A U102G A150G | ≤ -4.2 |
| A17U A19U A22G G88U A110G | ≤ -4.2 |
| A19U G42C G86U A110G C116A G117U | ≤ -4.2 |
| A19U A20C A73G G92U C116A | -0.142 |
| A19G C32A A47C G59C C85U A106C G143C | ≤ -4.2 |
| C18G U53A U139C | ≤ -4.2 |
| A19G A41U C57U G84U U146A A147U U151A | ≤ -4.2 |
| A17G U31A U90C C93U C99G C125A A137C G143C | ≤ -4.2 |
| C18G U55A | -0.923 |
| C18U U53A C85A C96A A137G | ≤ -4.2 |
| A19G C96U U101G | -0.801 |
| A19G C96U C123U | -0.681 |
| A19G A29G C38A U53A C76U G86U C99U | ≤ -4.2 |
| A19C C27A C125U U148G | ≤ -4.2 |
| A19C C32U A49G G59U | ≤ -4.2 |
| A17U A29U C93A G141U | ≤ -4.2 |
| C18U C54G G59A C93A G136U | ≤ -4.2 |
| C18G C116U | -0.663 |

| Variant | polymerase ribozyme fitness (log ratio) |
| --- | --- |
| A19U A91C C129A | ≤ -4.2 |
| A19U C87U | -0.845 |
| A17U G81C U102G U130G G141A | ≤ -4.2 |
| C18U A37U G83A C87U U90G A98C C116A G133U A137C | ≤ -4.2 |
| A17U A26C C38U G83A G124U | -3.97 |
| A17G U101A C105G | -3.18 |
| A17U A20G G42C C85U G128C | ≤ -4.2 |
| A17U A19U A22U U61A G83A G84A G100U | ≤ -4.2 |
| A19C G86A | -0.455 |
| A19C G94C U102G | ≤ -4.2 |
| A19U G94C | -0.449 |
| A19C U56A U104A A119U | -0.197 |
| C18G G59U G84U | -2.51 |
| A17U C85A | -1.17 |
| C18U C108U | -3.57 |
| A19U G42U A113G A121U G124C U148A | ≤ -4.2 |
| A19C A20C U148A | -3.05 |
| A19G U55A G83A A97G G124A A142C | ≤ -4.2 |
| A19G G84A | -1.52 |
| A19G G84U | -2.39 |
| A19U A21U C72G A89C C96G G143A | ≤ -4.2 |
| A17U A22U A52G G92C A115G | -2.67 |
| A17U A21U G67C C76U A91U C118G | ≤ -4.2 |
| A19C C27A A39C C79U C93A U102G G117C | -4.01 |

| Variant | polymerase ribozyme fitness (log ratio) |
| --- | --- |
| C18A G86U C103U U145A | -2.81 |
| C18G A49C C57G C87A G128U U146G | ≤ -4.2 |
| A19G C85G | -2.84 |
| A19G C85U | -1.3 |
| A19G G68U C79G G84A G86A U135C G140U | ≤ -4.2 |
| A17G G71A | -3.06 |
| C18G A41U A47C A49G G86A U104G | -3.44 |
| A19G A23U C38U G42U G68A U82A | ≤ -4.2 |
| A17U G94A | -1.24 |
| A19U C51U C54A C85G C132G | ≤ -4.2 |
| A19U A24U A30U U55A C93G C103G A106C C132G U146C | ≤ -4.2 |
| A17U G25C A29U G48C U53A G70U C93G C129A C131A A150C | ≤ -4.2 |
| A17U G50A C87G G141A | ≤ -4.2 |
| A17U G48A C51G U55G C96G C105U C118U G136U G141U | ≤ -4.2 |
| A17G C132G | -3.28 |
| A19C A60G C96U | 0.412 |
| A19G A24G C43A G59A | ≤ -4.2 |
| A19U A23G G84A U101G A115C | -3.62 |
| A17G U134G | -1.76 |
| A19G C51U A52C A60U G65A G84U C85A C87U A98C A138G | ≤ -4.2 |
| C18G A52G C87U | -1.15 |
| A17U C72U C99U | -1.38 |
| C18U C85A U144G | 0.299 |
| A19G A20U C36U C96G | -3.67 |

| Variant | polymerase ribozyme fitness (log ratio) |
| --- | --- |
| A19U A52G G94C | -1.72 |
| A17U U55A G84C C95G U148A | -3.23 |
| A19U G83U | -0.798 |
| A19U G83A | -0.555 |
| C18A C27A A40U C87U C118U | -4.17 |
| A17U C51A G94U A138G A150U | ≤ -4.2 |
| C18A U56A G92U C105U C114A U144G | -3.79 |
| C18U C76A C95U C99A U101G A107U C149G | ≤ -4.2 |
| A19G A41C | -1.52 |
| A19C A24U C57G C75U G92U C118A | -0.536 |
| A17G G59U A97C C99G | -2.61 |
| A17U C51U U55A U78A G81C C123G | ≤ -4.2 |
| A17G U145C | 0.174 |
| C18U G88C C103A G112C G143C | ≤ -4.2 |
| A19U A60G C72U G143U | ≤ -4.2 |
| C18U G81A C87U A97U | -1.14 |
| A19C C36U G59U A60G C93U U104G | -3.23 |
| A19U C114G | -3.52 |
| A19G G83C C87U U101G | ≤ -4.2 |
| A17U A37U G59C G81A A97G C116G | -1.87 |
| A19U G34A A47U C76A C116U | ≤ -4.2 |
| C18G G25C U33C C108G | -3.95 |
| A19U A30U U55G G59A G86U A150U | ≤ -4.2 |
| A19C U56A A91U A147C | ≤ -4.2 |

| Variant | polymerase ribozyme fitness (log ratio) |
| --- | --- |
| A17U C54G C96U | -2.08 |
| A17U A29C A41G G59C C85G | ≤ -4.2 |
| A17U U33A U45A C57G G70C C87A A98U | ≤ -4.2 |
| A19U C75U U139G G140A U151G | ≤ -4.2 |
| C18U A52G G83C U146G | -2.39 |
| A19U C35G C43A U56A G58U C85U A113G A122C U151A | ≤ -4.2 |
| C18G A21C A49C C93A | ≤ -4.2 |
| A19G C123G | -1.22 |
| C18A A39C G58C G84A U145G | -3.36 |
| A19U G94C U145G | -0.324 |
| A19C A30G C87U G128C G136U | ≤ -4.2 |
| A19U A23C A91U | ≤ -4.2 |
| A17U A37C C93G C96A | ≤ -4.2 |
| A19G A40C C85G A147C | -3.28 |
| C18G G92C C129U A150U | -3.54 |
| A19U G92C | -1.68 |
| C18U C87U G94C C123A G141A | ≤ -4.2 |
| C18U G25C A26C C32G G50U G58C C75U A91G C114A | ≤ -4.2 |
| C18A A89G U90G A97G | ≤ -4.2 |
| A19U C85U | -0.763 |
| C18U U56A U90G C99U A120C C132U U134C | ≤ -4.2 |
| A17U C51G G83A U134C | -3.2 |
| C18G G84U G117U A121G | -2.06 |
| A17U A40G G94C C132U | -4.03 |

| Variant | polymerase ribozyme fitness (log ratio) |
| --- | --- |
| C18G C96U | -1.12 |
| A19C A52U | -1.43 |
| A19G A26U U31C G92A C96G C103U | ≤ -4.2 |
| A19G C27A C57A G92U A97G G133A U134G | ≤ -4.2 |
| A19G C57A G65A | -2.01 |
| A17U C93A | -2.74 |
| C18G G80U C116U | -1.62 |
| C18U A19G | -1.03 |
| A17U C79G C87U U144G | ≤ -4.2 |
| C18U A20C G34U C76A C79A G88A | ≤ -4.2 |
| C18U G58C C85U C87U | -1.92 |
| A19U A26G A122G | ≤ -4.2 |
| A19G A40U G62U A121U G141U | -1.46 |
| A19C A30U G50A A73C G80U G86A C118A U145G | ≤ -4.2 |
| A19U G58C C87U C95U C116G | -1.52 |
| A17U A21U U55A A91C C95G A98U C108G | ≤ -4.2 |
| A17G U90C C93U C105G A122G G143C | ≤ -4.2 |
| A19C A29U C54G C108U | ≤ -4.2 |
| A19U A30U U56A G62C C76U | ≤ -4.2 |
| A19U A21C C54U U134A | ≤ -4.2 |
| A17U A52U A142C | -3.3 |
| A19U G71U G83C U146G | ≤ -4.2 |
| C18G G84C G126U | -2.27 |
| A19U A28G G50A G68A G94U | ≤ -4.2 |

| Variant | polymerase ribozyme fitness (log ratio) |
| --- | --- |
| A19C A20G G136A A147G | -2.36 |
| A17U A20G C63A G92A A150U | -2.12 |
| C18U U31G A37C C54U A91C U134C U146C | ≤ -4.2 |
| A17G G46A C69A A121G | -3.45 |
| A17U C93G U102A A107C G143A | ≤ -4.2 |
| A19G A41C G59A G62A A73U C118G A150U | ≤ -4.2 |
| A17U U33G A52C | ≤ -4.2 |
| C18G U55A A98G A106G G112U A120U | -3.87 |
| A17U C32G G48A C79G G84U G86U C108U | ≤ -4.2 |
| C18G C35A C76U G83C G84U G88A G141U | ≤ -4.2 |
| A19C C43U C76A G81C A91G A106U A121C G136U A142G | ≤ -4.2 |
| A17U A20C A26C C93U C131U | -2.3 |
| A19U G70A U82A U127G | ≤ -4.2 |
| C18U U44A G50A A52U G74A A91U C105G A106G C129G | ≤ -4.2 |
| A19U A21U G46C C96A U134A | ≤ -4.2 |
| A19C C32U C69A U77C C103A G143A U145A | ≤ -4.2 |
| A17U C57A G83C C99G | ≤ -4.2 |
| A19G A122C G136C A142C | -3.74 |
| A19C G92U | 0.745 |
| A19C G92A | -2.38 |
| C18U A21U G42A G58C C95U C116U U145C | ≤ -4.2 |
| C18G A29U U31G U44C A49U C76U A98G C118A | ≤ -4.2 |
| C18U A26G G58A C87A A97U G133A | ≤ -4.2 |
